Experimental data: PMC5512451

Target: N90-VRC38.01 IgG (human)
Test: SPR

Substance: BG505.DS.T332N.SOSIP.664 gp140 trimer (complex)
- fold stronger binding of the IgG than of the Fab: > 7 fold
